Results published in patent US20240166703A1, “ANTI-INFLAMMATORY PEPTIDE AND METHOD OF USE THEREOF” (The Regents of the University of California, priority 2021, published 2024).

Molecular target: T1, polyubiquitin-dependent second interaction between NEMO and IKK2 (Homo sapiens, UniProt O14920)
T1 construct: proteins of HEK293T cells expressing full length human IKK2 were extracted; expressed in transfected cells; host or cells: HEK293T whole cell lysate supplied HA-IKK2; GST-NEMO 241-419 was expressed in E. coli Rosetta (DE3)
T1 sequence (O14920 1-756): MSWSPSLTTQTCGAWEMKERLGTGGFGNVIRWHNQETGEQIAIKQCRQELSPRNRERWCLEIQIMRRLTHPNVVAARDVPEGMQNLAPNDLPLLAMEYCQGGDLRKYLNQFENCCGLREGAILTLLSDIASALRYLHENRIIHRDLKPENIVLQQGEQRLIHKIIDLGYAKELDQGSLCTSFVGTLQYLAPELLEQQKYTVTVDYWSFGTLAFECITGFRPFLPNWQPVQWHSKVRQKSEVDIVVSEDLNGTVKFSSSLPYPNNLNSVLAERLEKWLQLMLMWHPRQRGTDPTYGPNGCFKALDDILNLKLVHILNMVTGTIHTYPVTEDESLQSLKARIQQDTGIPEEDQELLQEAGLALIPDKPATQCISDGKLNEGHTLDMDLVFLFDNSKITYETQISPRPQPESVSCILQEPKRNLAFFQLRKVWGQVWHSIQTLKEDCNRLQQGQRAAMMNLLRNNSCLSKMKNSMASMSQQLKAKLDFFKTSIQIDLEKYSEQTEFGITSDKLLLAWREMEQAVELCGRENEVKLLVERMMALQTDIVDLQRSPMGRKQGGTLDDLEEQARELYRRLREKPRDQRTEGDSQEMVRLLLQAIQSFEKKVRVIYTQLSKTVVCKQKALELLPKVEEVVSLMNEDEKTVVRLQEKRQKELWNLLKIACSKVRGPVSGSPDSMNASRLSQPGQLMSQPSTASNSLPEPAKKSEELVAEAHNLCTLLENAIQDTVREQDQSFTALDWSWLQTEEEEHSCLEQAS
Test: Peptide in vitro GST pull-down from HA-IKK2-transfected HEK293T whole cell lysates
Format: binding
Settings: peptide 200-25 μM
Method: Proteins of HEK293T cells transfected with full length human IKK2 or mutants were extracted using RIPA buffer. After centrifugation at 16,000×g for 20 minutes, the supernatants were adjusted to the binding buffer (containing 1.5 mU Hexokinase) and incubated on a rotating platform for 1 hour at 4° C. These whole-cell extracts were then incubated with E. coli-expressed GST-fusion NEMO in the absence or presence of Ub4 on a rotating platform for 2 hours at 4° C. The beads were centrifuged at 1,000×g for 2 minutes and washed four times in binding buffer. Proteins bound to beads were resuspended in SDS loading buffer, resolved by SDS-PAGE, and analyzed by western blot.
For peptide in vitro pull-down assay, proteins of HEK293T cells expressing full length human IKK2 were extracted using the same lysis buffer described above. Whole cell lysates were mixed with E. coli-expressed GST-NEMO with or without NEMO^ActPep or mNEMO^ActPep at different concentrations in the absence of presence of Ub4 and incubated on a rotating platform for 2 hours at 4° C. The beads were then washed four times in the binding buffer. Proteins bound to beads were resuspended in SDS-PAGE loading buffer, separated by SDS-PAGE, and analyzed by western blot. […]

In the case of “TAT-NEMO^ActPep: HIV-1 TAT fused flexibly to human NEMO amino acids 375-391; cell permeable version of NEMO activation peptide (SEQ ID NO 2) (YGRKKRRQRRRGGLSSPLALPSQRRSPPEE)”, the “HA-IKK2 pulled down by GST-NEMO^241-419 in the presence of Ub4 (NEMO:IKK2 second interaction, western blot)” value is reported as “loss of this interaction was observed with increasing concentrations”.
